# Measurements reported in the supplement of paper PMC9112550, “Optimization of the antimicrobial peptide Bac7 by deep mutational scanning” (BMC Biology, 2022).
# System: Escherichia coli TOP10
# Test: shrunken log2 fold change of peptide-encoding DNA abundance (4.5 h post-induction vs induction); higher = less antimicrobial activity (less host growth inhibition)
# Conditions: time post-induction: 4.5 h; library: site-saturation at positions 5, 18, 19, 20
# 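Also: peptides expressed intracellularly from a pBAD plasmid library in pooled LB shake-flask culture, induced with 0.3% L-arabinose, DNA abundance read by NGS, three biological replicates, DESeq2 with apeglm shrinkage.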
row,Sequence,shrunken log2 fold change
1,RRIRERPPRLPRPRPRPATDPRP,-0.00755
2,RRIRARPPRLPRPRPRPKRHPRP,0.511
3,RRIRRRPPRLPRPRPRPECPPRP,0.176
4,RRIRVRPPRLPRPRPRPVRRPRP,2.95
5,RRIRWRPPRLPRPRPRPYTLPRP,-0.681
6,RRIRYRPPRLPRPRPRPPYPPRP,-0.257
7,RRIRNRPPRLPRPRPRPHMSPRP,0.0135
8,RRIRFRPPRLPRPRPRPKRKPRP,0.425
9,RRIRERPPRLPRPRPRPHACPRP,0.013
10,RRIRQRPPRLPRPRPRPSYEPRP,0.0509
11,RRIRIRPPRLPRPRPRPDQLPRP,-0.172
12,RRIRSRPPRLPRPRPRPELDPRP,0.674
13,RRIRCRPPRLPRPRPRPGAIPRP,-0.0334
14,RRIRKRPPRLPRPRPRPGIAPRP,1.46
15,RRIRSRPPRLPRPRPRPFELPRP,0.0413
16,RRIRSRPPRLPRPRPRPTLWPRP,0.448
17,RRIRFRPPRLPRPRPRPWHKPRP,-0.413
18,RRIRNRPPRLPRPRPRPSERPRP,-0.016
19,RRIRYRPPRLPRPRPRPRRTPRP,-0.202
20,RRIRYRPPRLPRPRPRPFCDPRP,-0.208

row,Sequence,shrunken log2 fold change
1,RRIRARPPRLPRPRPRPIVLPRP,-0.121
2,RRIRDRPPRLPRPRPRPGVHPRP,-0.0373
3,RRIRQRPPRLPRPRPRPAHRPRP,0.151
4,RRIRCRPPRLPRPRPRPSVGPRP,0.0128
5,RRIRARPPRLPRPRPRPHSGPRP,-0.0576
6,RRIRSRPPRLPRPRPRPAGMPRP,0.223
7,RRIRGRPPRLPRPRPRPYVGPRP,0.0053
8,RRIRERPPRLPRPRPRPAPYPRP,-0.123
9,RRIRKRPPRLPRPRPRPFNKPRP,-0.0789
10,RRIRTRPPRLPRPRPRPERGPRP,0.715
11,RRIRPRPPRLPRPRPRPQKEPRP,0.0431
12,RRIRDRPPRLPRPRPRPHPHPRP,-0.0722
13,RRIRARPPRLPRPRPRPYALPRP,0.0681
14,RRIRMRPPRLPRPRPRPYTRPRP,-0.013
15,RRIRTRPPRLPRPRPRPSIVPRP,-0.427
16,RRIRWRPPRLPRPRPRPEYMPRP,-0.0342
17,RRIRIRPPRLPRPRPRPGVTPRP,-0.0211
18,RRIRWRPPRLPRPRPRPDSSPRP,-0.238
19,RRIRKRPPRLPRPRPRPMDHPRP,0.34
20,RRIRRRPPRLPRPRPRPPVDPRP,0.241

row,Sequence,shrunken log2 fold change
1,RRIRPRPPRLPRPRPRPKGMPRP,0.129
2,RRIRHRPPRLPRPRPRPPPDPRP,0.646
3,RRIRWRPPRLPRPRPRPMKAPRP,0.294
4,RRIRPRPPRLPRPRPRPSLWPRP,0.471
5,RRIRNRPPRLPRPRPRPPETPRP,0.314
6,RRIRFRPPRLPRPRPRPIDYPRP,-0.155
7,RRIRIRPPRLPRPRPRPIMLPRP,0.112
8,RRIRDRPPRLPRPRPRPMFHPRP,-0.0543
9,RRIRKRPPRLPRPRPRPERQPRP,0.0351
10,RRIRMRPPRLPRPRPRPCFFPRP,0.16
11,RRIRARPPRLPRPRPRPMCYPRP,-0.112
12,RRIRHRPPRLPRPRPRPCRSPRP,-0.0622
13,RRIRSRPPRLPRPRPRPKSPPRP,0.291
14,RRIRKRPPRLPRPRPRPWNKPRP,-0.129
15,RRIRARPPRLPRPRPRPQCAPRP,0.216
16,RRIRKRPPRLPRPRPRPDPPPRP,0.927
17,RRIRDRPPRLPRPRPRPVFDPRP,0.291
18,RRIRIRPPRLPRPRPRPIDQPRP,-0.341
19,RRIRNRPPRLPRPRPRPQYPPRP,-0.571
20,RRIRPRPPRLPRPRPRPMVCPRP,-0.0948
